Results reported in US20220073643A1 (NANJING GENSCRIPT BIOTECH, published 2022).
Numbering of substitutions follows the chain as printed.

B1: 418D2F9 (antibody, V domains shown)
VH: DVQLVESGGGLVQPGGSRKLSCAASGFTFSSFGMHWVRQAPEKGLEWVAYINTGSSTIYYADTVKGRFTISRDNPKNTLFLQMTSLRSEDTAMYYCARIYYGNSFVYWGQGTLVTVSA
VL: DIVMTQSPSSLTVTAGEKVTMSCKSSQSLLNSGNQKNYLTWYQQKPGQPPKLLIYWASTRESGVPDRFTGSGSGTDFTLTISSVQAEDLAVYYCQNDYSYPLTFGAGTKLELK
B2: 421H4G3 (antibody, V domains shown)
VH: DVQLVESGGGLVQPGGSRKLSCAASGFSFSGFGLHWIRQTPEKGLEWVAYISSGSRPIYYADTVKGRFTISRDNPKNTLFLQMTSLRSEDTAMYFCARFYFGNSFDHWGQGTLVTVST
VL: B1 VL with S10F, K24R, K36R, S82N, V91L, D97A, Y100F
B3: 422F4B6 (antibody, V domains shown)
VH: B1 VH with T28S, N52S, T53S, T57P, T69I, Y95F, V106A
VL: B1 VL with S28T, D97A, A106S
B4: 422E8F9 (antibody, V domains shown)
VH: B2 VH with S28T, L34M, K65Q, F101Y, T118S
VL: B1 VL with S10F, V91L, D97A, Y100F
B5: 420H3H9 (antibody, V domains shown)
VH: B1 VH with N52S, T53S, D62H, T63S, R87G, I99F, V106A
VL: B1 VL with M21L, L52M, V91D, D97A, S99T, K109R
B6: 203A6D5 (antibody, V domains shown)
VH: QVQLKQSGPGLVQPSQSLSITCTVSGFSLTRYGVHWVRQSPGKGLEWLGVIWSGGNTDYNAAFISRLNIRKDNSKSQVFFKMNSLKPNDTAIYYCARAAYFGNSFDYWGQGTTLTVSS
VL: B1 VL with T12P, E61D, D97N, S99I
B7: 425B3D5 (antibody, V domains shown)
VH: B2 VH with S28T, L34M, K65Q, F101Y, T118S
VL: B1 VL with S10F, V91L, D97A, Y100F
B8: 425C6D3 (antibody, V domains shown)
VH: B2 VH with S28T, L34M, K65Q, F101Y, T118S
VL: B1 VL with S10F, V91L, D97A, Y100F
B9: 213B10A4 (antibody, V domains shown)
VH: QAYVQQSGAELVRSGASVKMSCRASGYTFTSYNMHWVKQTPGQGLEWIGYIYPGNGGTYYNQKFKGKATLTADTSSSTAYMQISSLTSEDSAVYFCATGRGFAYWGQGTLVTVSA
VL: B1 VL with W56R, S73F
B10: 423B2B5 (antibody, V domains shown)
VH: B1 VH with N52S, T53S, T57P, A61S, T84S, Y95F, V106D, Y107H
VL: B1 VL with S22N
B11: 418G6A5 (antibody, V domains shown)
VH: B1 VH with A23V, N52S, T53S, T57P, I58M, Y95F, V106A
VL: B1 VL with D97A
B12: 426H6E11 (antibody, V domains shown)
VH: B2 VH with S28T, L34M, K65Q, F101Y, T118S
VL: B1 VL with S7F, S10F, S28T, V91L, D97A, Y100F, K109N
B13: 423C10E1 (antibody, V domains shown)
VH: DVQLVESGGGLVQPGGSRKLSCVTSGFTFSSFGMHWVRQAPEKGLEWVAFISGGGSPIFYADSVKGRFTVSRDNPKNTLFLQMTGLRSEDTAMYFCARFYFGNSFAYWGQGTLVTVSA
VL: B1 VL with S22N, K24R, L30F, P49S, D66V, N96T, D97S, Y98F, S99N, A106P
B14: 419A10D4 (antibody, V domains shown)
VH: B2 VH with S28T, L34M, F101Y, T118A
VL: B1 VL with S10F, K36R, I81V, V91L, D97A, Y100F
B15: 420H7E6 (antibody, V domains shown)
VH: B13 VH with V37I
VL: B1 VL with T5A, S22N, K24R, L30F, D66V, N96T, D97G, Y98F, A106P
B16: 420F12G8 (antibody, V domains shown)
VH: B2 VH with S28A, L34M, A97V, F101Y, T118A
VL: B1 VL with S10F, S22T, K24R, S28N, Y55S, A86P, V91L, D97A, Y100F, L102F
B17: 426D9F6 (antibody, V domains shown)
VH: B2 VH with S28T, L34M, F101Y, T118A
VL: B1 VL with S10F, K36R, I81V, V91L, D97A, Y100F
B18: 429G4E9 (antibody, V domains shown)
VH: B1 VH with N52S, T53S, T57P, Y95F, R98T, I99F, V106A
VL: B1 VL with S28T, P46S, D97A, L102V, A106S, L110V
B19: 419A5F3 (antibody, V domains shown)
VH: B2 VH with S28T, L34M, G54D, A97G, F101Y, T118A
VL: B1 VL with S10F, M21L, K24R, K36R, L89R, V91L, D97A, Y100F, A106T, K113R
B20: 420D5H5 (antibody, V domains shown)
VH: B2 VH with S28T, F29L, L34M, A61V, K65E, F101Y, T118S
VL: B1 VL with S10F, S82R, S83G, V91L, D97A, Y100F
B21: 207F8G5 (antibody, V domains shown)
VH: QAYLQQSGAELVRSGASVKMSCKASGFTFTSYNIHWVKQTPGQGLEWIGYISPGNGGSNYNLKFKDKATLTSATSSSTAYMQISSLTSEDSAVYFCATGRGFAYWGQGTLVTVSA
VL: B1 VL with A15P, L30F, T40I, W56R, E61D, S83N, V91I
B22: 182D10F1 (antibody, V domains shown)
VH: B9 VH with V4L, R23K, T30S, Y59N, A97L, A103T
VL: B1 VL with S22N, L30F, W56R, A106V
B23: 430B3F1 (antibody, V domains shown)
VH: B2 VH with S28T, L34M, S55G, K65Q, F101Y, V116I, T118S
VL: B1 VL with S10F, V91L, D97A, Y100F
B24: 429H6C5 (antibody, V domains shown)
VH: B1 VH with G44E, N52S, T53S, D62H, Q82R, R87G, A97V, I99F, Y107N
VL: B1 VL with V13A, L52M, T69A, D97A, S99I, K109R
B25: 419B5G9 (antibody, V domains shown)
VH: B1 VH with S31T, N52S, T53G, S56T, Y59F, L86V, I99F, V106A, Q110P, A118T
VL: B1 VL with L52M, D97A
B26: 420G10G3 (antibody, V domains shown)
VH: B2 VH with S28T, L34M, P41A, K65Q, F101Y, T118A
VL: B1 VL with S10F, V91L, D97A, Y100F
B27: 424G9G3 (antibody, V domains shown)
VH: QVQLQQSGPEVVRPGASVKMSCKGSGYTLNNFWMHWVKQRPGQGLEWIGMIDTSNGETRLNQIFKDKATLTVDKSSKTAYMQLSSLTSEDSAVYYCAPYGNFADWGQGTTLTVSS
VL: DVLLTQTPLSLPVSLGDQASISCRSSQSIVYGNGNTYLEWYLQKPGQSPKLLIYKVSSRFSGVPDRFSGSGSGTDFTLKITKVEAEDLGVYYCFQGSHVPFTFGSGTKLEIK

biological target: human Claudin18.2 (human); assay: cell-based or functional assay

Q: How did the “CDC % Relative activity” value turn out when B1 was run?
A: 236%

Q: What about the “CDC EC50” value of the same binder?
A: 0.73 µg/mL

Q: What does the source list for B2?
A: CDC % Relative activity: 65.9%; CDC EC50: 2.89 µg/mL

Q: What does the source list for B3?
A: CDC % Relative activity: 31.6%; CDC EC50: 6.03 µg/mL

Q: What does the source list for B4?
A: CDC % Relative activity: 89.2%; CDC EC50: 2.14 µg/mL

Q: For B5, which “CDC % Relative activity” value is on record?
A: 458%

Q: And the “CDC EC50” value?
A: 0.416 µg/mL

Q: B6 was tested. Which “CDC % Relative activity” value did it give?
A: 571%

Q: What about the “CDC EC50” value of the same binder?
A: 0.336 µg/mL

Q: Which results are given for B7?
A: CDC % Relative activity: 63%; CDC EC50: 3.02 µg/mL

Q: B8 was tested. Which “CDC % Relative activity” value did it give?
A: 96.6%

Q: And the “CDC EC50” value?
A: 2.08 µg/mL

Q: For B9, which “CDC % Relative activity” value is on record?
A: 121%

Q: What about the “CDC EC50” value of the same binder?
A: 1.59 µg/mL

Q: For B10, which “CDC % Relative activity” value is on record?
A: 6.38%

Q: And the “CDC EC50” value?
A: 29.9 µg/mL

Q: What does the source list for B11?
A: CDC % Relative activity: 207%; CDC EC50: 0.83 µg/mL

Q: How did the “CDC % Relative activity” value turn out when B12 was run?
A: 80%

Q: And the “CDC EC50” value?
A: 2.51 µg/mL

Q: B13 was tested. Which “CDC % Relative activity” value did it give?
A: 56.2%

Q: And the “CDC EC50” value?
A: 3.39 µg/mL

Q: For B14, which “CDC % Relative activity” value is on record?
A: 91.5%

Q: What about the “CDC EC50” value of the same binder?
A: 1.88 µg/mL

Q: B15 was tested. Which “CDC % Relative activity” value did it give?
A: 48.8%

Q: What about the “CDC EC50” value of the same binder?
A: 3.9 µg/mL

Q: For B16, which “CDC % Relative activity” value is on record?
A: 52.6%

Q: And the “CDC EC50” value?
A: 3.27 µg/mL

Q: For B17, which “CDC % Relative activity” value is on record?
A: 32.4%

Q: And the “CDC EC50” value?
A: 6.21 µg/mL

Q: B18 was tested. Which “CDC % Relative activity” value did it give?
A: 164%

Q: And the “CDC EC50” value?
A: 1.23 µg/mL

Q: For B19, which “CDC % Relative activity” value is on record?
A: 61.7%

Q: And the “CDC EC50” value?
A: 2.79 µg/mL

Q: For B20, which “CDC % Relative activity” value is on record?
A: 78.3%

Q: What about the “CDC EC50” value of the same binder?
A: 2.2 µg/mL

Q: For B21, which “CDC % Relative activity” value is on record?
A: 627%

Q: What about the “CDC EC50” value of the same binder?
A: 0.305 µg/mL

Q: With B22 as the binder, how does the “CDC % Relative activity” value read?
A: 195%

Q: What about the “CDC EC50” value of the same binder?
A: 0.811 µg/mL

Q: How did the “CDC % Relative activity” value turn out when B23 was run?
A: 70.2%

Q: And the “CDC EC50” value?
A: 2.87 µg/mL

Q: B24 was tested. Which “CDC % Relative activity” value did it give?
A: 331%

Q: What about the “CDC EC50” value of the same binder?
A: 0.607 µg/mL

Q: What does the source list for B25?
A: CDC % Relative activity: 349%; CDC EC50: 0.494 µg/mL

Q: Which “CDC % Relative activity” value does the source give for B26 here?
A: 72.4%

Q: What about the “CDC EC50” value of the same binder?
A: 2.63 µg/mL

Q: Which results are given for B27?
A: CDC % Relative activity: 9.38%; CDC EC50: 20.3 µg/mL
